Literature values as cited in publication PMC7248048.

Experiments:
[1] = target: Fibronectin (Homo sapiens) (UniProt P02751)
[2] = target: Vitronectin (Homo sapiens) (UniProt P04004)
Sequence of UniProt P04004 (P04004 399-478): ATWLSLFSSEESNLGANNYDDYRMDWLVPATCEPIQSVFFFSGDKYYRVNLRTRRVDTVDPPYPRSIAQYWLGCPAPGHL

Sequence of UniProt P02751 (P02751 32-2477): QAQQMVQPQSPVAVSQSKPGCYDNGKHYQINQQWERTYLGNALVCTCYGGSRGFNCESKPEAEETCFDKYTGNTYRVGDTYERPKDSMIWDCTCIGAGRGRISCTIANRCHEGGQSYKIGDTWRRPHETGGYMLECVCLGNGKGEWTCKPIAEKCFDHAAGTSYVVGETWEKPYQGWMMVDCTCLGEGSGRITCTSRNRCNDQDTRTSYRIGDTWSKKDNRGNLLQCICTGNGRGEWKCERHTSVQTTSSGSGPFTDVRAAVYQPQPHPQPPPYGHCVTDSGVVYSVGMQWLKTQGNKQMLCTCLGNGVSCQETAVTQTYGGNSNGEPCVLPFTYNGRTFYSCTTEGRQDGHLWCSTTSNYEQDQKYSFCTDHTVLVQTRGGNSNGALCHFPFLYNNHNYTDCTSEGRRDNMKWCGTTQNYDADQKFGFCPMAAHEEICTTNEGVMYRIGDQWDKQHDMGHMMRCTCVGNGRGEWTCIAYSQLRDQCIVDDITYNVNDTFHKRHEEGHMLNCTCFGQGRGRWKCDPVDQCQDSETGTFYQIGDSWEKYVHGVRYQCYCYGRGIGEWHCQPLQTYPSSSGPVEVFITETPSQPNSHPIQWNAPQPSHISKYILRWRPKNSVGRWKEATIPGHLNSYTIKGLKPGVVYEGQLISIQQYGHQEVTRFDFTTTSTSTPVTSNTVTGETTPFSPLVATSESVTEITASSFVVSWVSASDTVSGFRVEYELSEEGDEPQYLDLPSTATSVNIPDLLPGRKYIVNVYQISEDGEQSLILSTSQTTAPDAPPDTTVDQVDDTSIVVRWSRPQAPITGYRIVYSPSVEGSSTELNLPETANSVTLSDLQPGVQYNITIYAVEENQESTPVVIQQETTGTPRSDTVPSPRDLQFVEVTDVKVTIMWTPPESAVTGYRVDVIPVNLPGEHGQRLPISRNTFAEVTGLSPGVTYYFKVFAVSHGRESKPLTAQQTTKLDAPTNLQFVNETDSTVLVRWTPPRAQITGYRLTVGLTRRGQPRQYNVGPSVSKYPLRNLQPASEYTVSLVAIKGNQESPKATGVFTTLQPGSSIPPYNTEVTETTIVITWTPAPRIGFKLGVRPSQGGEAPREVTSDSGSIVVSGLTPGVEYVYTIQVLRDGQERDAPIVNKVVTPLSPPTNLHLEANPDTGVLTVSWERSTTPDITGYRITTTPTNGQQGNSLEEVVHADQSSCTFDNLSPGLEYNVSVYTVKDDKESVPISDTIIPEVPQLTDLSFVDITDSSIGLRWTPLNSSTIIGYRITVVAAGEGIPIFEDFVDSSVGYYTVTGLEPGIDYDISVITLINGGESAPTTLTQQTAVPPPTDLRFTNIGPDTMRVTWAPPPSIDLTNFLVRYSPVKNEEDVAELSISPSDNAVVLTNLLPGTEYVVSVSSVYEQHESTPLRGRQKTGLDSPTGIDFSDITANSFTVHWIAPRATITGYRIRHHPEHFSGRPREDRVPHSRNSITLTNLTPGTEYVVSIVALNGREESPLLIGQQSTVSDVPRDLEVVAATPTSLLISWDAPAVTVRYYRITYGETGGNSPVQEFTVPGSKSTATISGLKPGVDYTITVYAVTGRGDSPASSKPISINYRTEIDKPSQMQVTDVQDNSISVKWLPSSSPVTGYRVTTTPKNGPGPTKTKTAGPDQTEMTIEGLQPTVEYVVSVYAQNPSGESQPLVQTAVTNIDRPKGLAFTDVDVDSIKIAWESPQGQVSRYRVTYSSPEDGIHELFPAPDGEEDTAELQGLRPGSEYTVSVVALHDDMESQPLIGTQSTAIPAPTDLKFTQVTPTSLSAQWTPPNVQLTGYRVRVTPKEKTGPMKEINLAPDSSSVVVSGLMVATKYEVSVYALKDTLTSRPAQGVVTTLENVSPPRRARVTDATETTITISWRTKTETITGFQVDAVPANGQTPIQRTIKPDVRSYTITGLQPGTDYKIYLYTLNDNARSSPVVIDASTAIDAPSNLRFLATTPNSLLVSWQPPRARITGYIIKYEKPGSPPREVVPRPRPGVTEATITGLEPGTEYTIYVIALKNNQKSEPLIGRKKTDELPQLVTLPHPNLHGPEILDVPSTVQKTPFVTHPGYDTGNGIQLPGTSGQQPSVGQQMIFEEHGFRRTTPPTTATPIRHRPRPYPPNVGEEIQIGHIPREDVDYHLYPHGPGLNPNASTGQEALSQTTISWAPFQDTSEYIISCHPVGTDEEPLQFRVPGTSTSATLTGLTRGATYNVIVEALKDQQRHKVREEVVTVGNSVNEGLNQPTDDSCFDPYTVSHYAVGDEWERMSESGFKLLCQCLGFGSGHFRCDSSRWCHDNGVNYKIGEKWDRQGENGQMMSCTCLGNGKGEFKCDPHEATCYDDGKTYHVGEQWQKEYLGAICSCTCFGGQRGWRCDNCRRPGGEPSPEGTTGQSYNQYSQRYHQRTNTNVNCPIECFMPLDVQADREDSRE

Question: Which Kd [1] does the source give for “Haemophilus lipoprotein e (P4) (from UniProt P26093)” here?
Answer: 10.2 nM

Question: And the Kd [2]?
Answer: 16.5 nM
